# Experimental data from the supplement of paper PMC9170038.
# Tested on: MS2 coat protein
# Assay: apparent KD of MS2 coat protein; designed switch direction (-1 OFF switch, 1 ON switch): -1; higher = weaker reporter binding
# Outline: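 RNA switches sharing common flanks were transcribed by stalled E. coli RNA polymerase on Illumina chips. A doubling series of SNAP-549-labelled MS2 coat protein, from 0.7 or 1.5 nM to 3 µM, was applied in Tris-HCl pH 7.5 buffer with KCl, MgCl2, BSA, DTT, tRNA and Tween-20. Each step lasted 0.8–1.5 h at the bottom of the series and 10–20 min at the top. Normalised cluster fluorescence was curve-fitted, giving apparent KD as the per-design median over clusters.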
# [1] = input ligand: microRNA oligo, concentration not stated
# [2] = Eterna round: R95, input ligand: FMN 200 uM
# [3] = Eterna round: R95, input ligand: microRNA oligo, concentration not stated
# [4] = Eterna round: R95, input ligand: none
Sequence,apparent KD of MS2 coat protein (input ligand: FMN 200 uM) [nM],apparent KD of MS2 coat protein (input ligand: none) [nM],apparent KD of MS2 coat protein [1] [nM],apparent KD of MS2 coat protein [2] [nM],apparent KD of MS2 coat protein [3] [nM],apparent KD of MS2 coat protein [4] [nM]
"GGUCGACAUGAGGAUCACCCAUGUCAGGAUAUCGUCACUGGAGCUGCGGCUCCAGUGACGAGAAGGGAUAUAAU [E1/15-A3] (Eterna round: R97, puzzle: Exclusion 1)",45.3,38.8,–,–,–,–
"UUUCUGUGAGGAUAUCAGUAGUAAAUAAAUAAAAUUACUACUGAGAAGGCACAUGAGGAUCACCCAUGUUCCUU [salish99_ex3_r3_093] (Eterna round: R96, puzzle: Exclusion 4)",35.1,16.5,12.9,–,–,–
CUUUUGUGAGGAUAUCAGUAGUAAAAAAAUAAAAUUACUACUGAGAAGGCACAUGAGGAUCACCCAUGUUCCUU [salish99_ex4_r3_010] (puzzle: Exclusion 4),–,–,–,28.4,15.2,14
"CUAGUAUAUCAGGAUAUGAUAGCUUAUAGCAUAUCAGAAGGGAUUACAUGAGGAUCACCCAUGUGAAGGGAUGA [eternacac ex6r4 sub17] (Eterna round: R97, puzzle: Exclusion 6)",331,275,–,–,–,–
"UACACCGCAUGAGGAUCAAACAUGAGGAUCACCCAUGUGUAGCAAGCUUUUUGCUCGUCUUAUAAAUAUGUGGUGUA [Electric Eye 9 - Jieux - Sensor, turn-off variant 1] (Eterna round: R97, puzzle: Sensor, turn-off variant 1)",12.6,13,–,–,–,–
AUUAAAACAUAGGAUAUCGAAAUUAUUAUUUAACGAGAAGGAUGAACAUGAGGAUCACCCAUGUGGUAUCAUGG [Mat - Exclusion 6 - JL Mod - D28] (puzzle: Exclusion 6),–,–,–,307,367,610
"AUCAGCUCGUGAGGAUAUACAUGCGUGCUUCGGCACGAAUUUAAGAUCACAUGAGGAUCACCCAUGUAGAAGGCACGAGCUGAU [ENG2/3-A3] (Eterna round: R96, puzzle: Exclusion NG 2)",1880,520,538,–,–,–
"AUCGUGCAGCUUUGCUGUACGAGUACAUGAGGAUCACCCAUGUAGGAUAUGGUACGCUUUGCGUGCUAGAAGGAUAUGCGUUUG [EX ENG3 1.45] (Eterna round: R96, puzzle: Exclusion NG 3)",46.7,41.3,40,–,–,–
"GAGCAGCGAGGAUAUACCUGGACCUGGUCCCAGGCCGAUCAACUUGAGGAUCACCCAAGUAGAAGGCGUGGCUC [Ceortiti] (Eterna round: R97, puzzle: Exclusion 2)",322,401,–,–,–,–
"AGUCGAAAGAUCCACAUGGACAUGAGGAUCACCCAUGUGCAAGCCUUUUUCUCGUCACUAUCGUCAAAAGACGAUAG [Omei Mir Offv1 A6] (Eterna round: R97, puzzle: Sensor, turn-off variant 1)",185,234,–,–,–,–
"ACAAAGCGAGGAUAUACACAGGUGUCCUGGGCGUCAAAUCGACAUGAGGAUCACCCAUGUAGAAGGCGCAAUAG [Diedated] (Eterna round: R97, puzzle: Exclusion 2)",44.9,36.9,–,–,–,–
"AUAAUGUGAGGAUAUCAGUCGUACAGCGAUAGCUGUACGACUGAGAAGGCACAUGAGGAUCACCCAUGUGGUCA [E4/5-A4] (Eterna round: R97, puzzle: Exclusion 4)",162,562,–,–,–,–
"UCAGGCUAUUAAACCGCCGACAUGAGGAUCACCCAUGUACUUCAUGCGCUAGCUUGCUCGUCUACCUCAAGGAUCCG [Eternabot (L2) Solution 24] (Eterna round: R97, puzzle: Sensor, turn-off variant 1)",67.7,68.6,–,–,–,–
"GCAGCUAGUUCAGGAUAUCAGCACGUUUAGUGCUGAGAAGGGAACAUGAGGAUCACCCAUGUGAUCAAUGCUGCAAUUUUAAUU [ENG1/12-A2] (Eterna round: R96, puzzle: Exclusion NG 1)",1470,717,776,–,–,–
"AGAAAGGUAGGAUAUACGAAAAAAAAGGGUAGAAAAAAAACACAUGAGGAUCACCCAUGUAGAAGGACCAAAGA [Mat - Exclusion 2 - Tesla mod - D31] (Eterna round: R96, puzzle: Exclusion 2)",–,–,27.6,–,–,–
CUUGUUUAUGUGAGGAUAUACUGUUAGUAAUGUUUGUAGAAGGUACAUGAGGAUCACCCAUGUUUAUUUUUUUU [JR_BME4_Sub044] (puzzle: Brourd's mod of Exclusion 4),–,–,–,–,20.2,–
"GCAAGCAGCUUGGAAUGAGACAUGAGGAUCACCCAUGUUCAGCACAAAGCCUUCAAUCAUCAGCUCGAAAGUAAAUG [Eternabot (L2) Solution 16] (Eterna round: R97, puzzle: Sensor, turn-off variant 1)",14.7,16.3,–,–,–,–
"GUGGUGGGUUUUCCGAGUGACAUGAGGAUCACCCAUGUGUUAGUUUGAGGUAUCAAGCGAAUGGCUCGUCUUAUGUG [JR_SV3TOV1_Sub046] (puzzle: Sensor v3, turn-off variant 1)",–,–,–,140,21.2,154
"UAACCCGCGCGAGGAUAUCACAUGAGGAUCACCCAUGUGGCACUCCGUCACCGGGCAGUCCCGAGUGAGAAGGUGCAGGCGGGA [Bireisen] (Eterna round: R96, puzzle: Exclusion NG 2)",62.8,26,22.1,–,–,–
"UUUCAUCAUGUAGGAUAUGCGUGGCGAAGCUAUGCAGAAGGACAUGAGGAUCACCCAUGUUCUAGCGUCUGCGUACAGAUGCUA [JL ENG1 1.35] (Eterna round: R96, puzzle: Exclusion NG 1)",226,52.4,45.1,–,–,–
"ACAUGAGGAUCACCCAUGUGAAACCAAUGGCUGACUUUGAGCUAGGAUAUUUGUGCAUAUCAAACAAAGAAGGAGCAUUACUGG [Deportation 98 - Jieux - Exclusion NG 3] (Eterna round: R96, puzzle: Exclusion NG 3)",–,–,30.2,–,–,–
"CGGAACCAGACAGGAUAUACCUGUCCGAGACAGACACACAUGAGGAUCACCCAUGUUGAUGUCAGGUAGAAGGGUCAUAAAGAC [Eternabot solution 7] (Eterna round: R96, puzzle: Exclusion NG 2)",9.86,11.5,10.3,–,–,–
"ACAUGAGGAUCACCCAUGUGCACGUAAUGGCUCAUGUAGAGUGAGGAUAUGCGUGACGAACGAGCGCAGAAGGCACAAGACUGG [Deportation 16 - Jieux - Exclusion NG 3] (Eterna round: R96, puzzle: Exclusion NG 3)",131,77.5,57.8,–,–,–
"CAGCCCUGAGGAUAUCCAUCCUCGUACAUGAGGAUCACCCAUGUCUCCCUCUGGGCUUUCGGAGAAGGCAGGUAUC [Megrez-6.1] (Eterna round: R97, puzzle: Exclusion 5)",743,976,–,–,–,–
